Test results published in patent US20180057596A1.
Where a chain is given by its changes, count along the chain named.

B1: MoLoop2HuIL-4Rα (receptor)
chain: MKVLQEPTCVSDYMSISTCEWKMNGPTNCSTELRLLYQLMFFEFSENLTCIPENNGGAGCVCHLLMDDVVSADNYTLDLWAGQQLLWKGSFKPSEHVKPRAPGNLTVHTNVSDTLLLTWSNPYPPDNYLYNHLTYAVNIWSENDPADFRIYNVTYLEPSLRIAASTLKSGISYRARVRAWAQCYNTTWSEWSPSTKWHNSYREPFDYKDDDDKAAHHHHHHHHHH
B2: EM23 (receptor)
chain: B1 chain with L48H
B3: EM18 (receptor)
chain: B1 chain with M40V
B4: EM04 (receptor)
chain: MKVLQEPTCVSDYMSISTCEWKMNGPTNCSTELRLLYQLVFLLSEAHTCIPENNGGAGCVCHLLMDDPVSADNYTLDLWAGQQLLWKGSFKPSEHVKPRAPGNLTVHTNVSDTLLLTWSNPYPPDNYLYNHLTYAVNIWSENDPADFRIYNVTYLEPSLRIAASTLKSGISYRARVRAWAQCYNTTWSEWSPSTKWHNSYREPFNPAFLYKVVGAADYKDDDDKAAHHHHHHHHHH
B5: EM01 (receptor)
chain: B4 chain with L64E, P68V
B6: EM06 (receptor)
chain: B4 chain with P68V, A71S
B7: EM05 (receptor)
chain: B4 chain with P68V, S70Q
B8: EM07 (receptor)
chain: B4 chain with P68V, N73R
B9: EM03 (receptor)
chain: B4 chain with D67R, P68V
B10: EM02 (receptor)
chain: B4 chain with D66N, P68V
B11: MoLoop3HuIL-4Rα (receptor)
chain: MKVLQEPTCVSDYMSISTCEWKMNGPTNCSTELRLLYQLVFLLSEAHTCIPENNGGAGCVCHLEMNRPVQSDRYTLDLWAGQQLLWKGSFKPSEHVKPRAPGNLTVHTNVSDTLLLTWSNPYPPDNYLYNHLTYAVNIWSENDPADFRIYNVTYLEPSLRIAASTLKSGISYRARVRAWAQCYNTTWSEWSPSTKWHNSYREPFDYKDDDDKAAHHHHHHHHHH
B12: MoD1HuD2IL-4Rα (receptor)
chain: IKVLGEPTCFSDYIRTSTCEWFLDSAVDCSSQLCLHYRLMFFEFSENLTCIPRNSASTVCVCHMEMNRPVQSDRYQMELWAEHRQLWQGSFSPSGHVKPRAPGNLTVHTNVSDTLLLTWSNPYPPDNYLYNHLTYAVNIWSENDPADFRIYNVTYLEPSLRIAASTLKSGISYRARVRAWAQCYNTTWSEWSPSTKWHNSYREPFDYKDDDDKAAHHHHHHHHHH
B13: MoIL-4Rα (receptor)
chain: IKVLGEPTCFSDYIRTSTCEWFLDSAVDCSSQLCLHYRLMFFEFSENLTCIPRNSASTVCVCHMEMNRPVQSDRYQMELWAEHRQLWQGSFSPSGNVKPLAPDNLTLHTNVSDEWLLTWNNLYPSNNLLYKDLISMVNISREDNPAEFIVYNVTYKEPRLSFPINILMSGVYYTARVRVRSQILTGTWSEWSPSITWYNHFQLPLNPAFLYKVVGAADYKDDDDKAAHHHHHHHHHH
B14: AllMoLoopsHuIL-4Rα (receptor)
chain: MKVLQEPTCVSDYIRTSTCEWKMNGPTNCSTELRLLYQLMFFEFSENLTCIPENNGGAGCVCHLEMNRPVQSDRYTLDLWAGQQLLWKGSFKPSEHVKPRAPGNLTVHTNVSDTLLLTWNNLYPSNNYLYNHLTYAVNIWSENDPADFRIYNVTYLEPSLRIAASTLKSGISYRARVRAWSQILTGTWSEWSPSTKWHNSYREPFDYKDDDDKAAHHHHHHHHHH
B15: HuD1MoD2IL-4Rα (receptor)
chain: MKVLQEPTCVSDYMSISTCEWKMNGPTNCSTELRLLYQLVFLLSEAHTCIPENNGGAGCVCHLLMDDVVSADNYTLDLWAGQQLLWKGSFKPSENVKPLAPDNLTLHTNVSDEWLLTWNNLYPSNNLLYKDLISMVNISREDNPAEFIVYNVTYKEPRLSFPINILMSGVYYTARVRVRSQILTGTWSEWSPSITWYNHFQLPLDYKDDDDKAAHHHHHHHHHH

Biological target: antibody tested in the epitope mapping of Example 5
Assay: HTRF competition, test protein against biotinylated human IL-4Rα/Fc for cryptate labelled antibody

| Binder | IC50 [nM] |
| --- | --- |
| B1 | 25 |
| B2 | 56 |
| B3 | 20 |

Biological target: antibody tested in the epitope mapping of Example 5
Assay: HTRF competition

| Binder | fold higher IC50 than human IL-4Rα [fold] |
| --- | --- |
| B1 | 100 |
| B4 | 20 |

Biological target: antibody tested in the epitope mapping of Example 5
Assay: HTRF competition, test protein against biotinylated human IL-4Rα/Fc for cryptate labelled antibody
Remark: another data set of the same source

| Binder | IC50 [nM] | % inhibition at the highest concentration (1000 nM) [%] |
| --- | --- | --- |
| B5 | 0.71 | – |
| B6 | 3.25 | – |
| B4 | 15 | – |
| B7 | 1.65 | – |
| B8 | 1.41 | – |
| B9 | – | 29 |
| B10 | 2.25 | – |
| B11 | – | 45 |

Biological target: antibody tested in the epitope mapping of Example 5
Assay: as above
Remark: another data set of the same source

| Binder | IC50 [nM] | % inhibition at the highest concentration (1000 nM) [%] |
| --- | --- | --- |
| B1 | 23 | – |
| B12 | – | 34 |
| B13 | – | 45 |
| B14 | – | 41 |
| B15 | 3.4 | – |
| B11 | – | 58 |
